A short description of this series: label from the status in PepcDB records.
Take “MASSTLFKLNSQTFKALNPSPPSLSPPNSRIFHLHFSKSLSQQHSKLNHKSTTTRLFAPLCSSLPSPSSSSPPLSKEEAINQAKTCLLSCLIKPLNNPKLASPKLRKLKQPRFRLEIPILDDDSPSSLSQLAFSIFHDLPISRRGSNVKLLFLWPNPSFIDPAVKAFRSDSIHHIAMSPVSDSLKTALRSADVAIFMAPEKSQLEDVKTASEAFSTKPVVMINPRWLFEEEKSFGDGFIGSFEVIYAFTGLEVRGVFSKRKGVIFKCVRDGVVSGERWNVLVEEEEGNGTLKVVSQFNSRPSIEEVELVLYNLMAMNSPITKSAKFLSDLVSNITGKK”: the protein production entry is reported as “failed”.

Take “MASTDYHVDLTNCDREPIHIPGYIQPHGCLIACDNAMRMVLRHSENCGELLGLEGDLNGRTAEDVLGKKLVHDLRNALTVTGRTTRPAMLPAMETSDGRSFDISLHRYKSTTIIEFEPSGSDAQPLGTARKMVDRIREADSVESLISRTTRLVKATLGYDRVMIYRFQEDGAGKVVSEAKQPELESFLGQYFPASDIPQQARALYLKNTLRIISDASGTRIPVLPAVDVSGEPLDLSYAHLRSVSPIHCEYLRNMGVAASMSISVIVDGALWGLIACHHYSPRVLSMPVRIAAEMFGEFFSMHLQVLKQKRRLDTINHAHAALDRFLRLAAHHANIEELLVDSFQDFADLMPCDGVGLWVGNNWHGHGATPPHDAIPRLARFVASASEGRVWATHALSQAIPEAEIYAGTAAGMLAIPLSQVKSDYLLFFRKEIVQNLNWAGNPEKSYETGPMGDRLTPRKSFAIWKETVRLQAQPWSEADREIAEAARIALVEVAFHHSELMAGERERAEVRQRMLNEELNHRVKNVLAIIKSLVGNPSQEGKTLQEYVTALKGRIQALSFAHDQIIRGEGGGALRDLLEAELSPHRSPETTVKLEGPQITLDSRAFSVMALVLHELATNAAKYGALSQNGGQLHVRWDVNENRDCEISWRETLLTTLPAPSRAGFGTALISRSIPYDLGGRSTIRYLPNGLEAEILLPFRHVSSVSAAFETKTEAETLPQPRRYNREEPLKVLLVEDQMLIAMDVENMLEDNGIKAIETATSSAMAIEKLKTYLPDVAILDINLGSDTSIPVARELHRRGIPFLFATGYADGSMVPDEFGAVPVIRKPYDEDALMAGIGVLVGDTERV”: the protein production entry is reported as “failed”.

As for “MASVNSPIRTFLKPLLFKLFGKNVYARFQFYAKIKDIDKRLVEEKEMELLPYFLNKDSNSIDVGANYAYYTVGMSKLSKKVFAYEPIPFTYKVCKMLLKHYNCANVDLFAQGVGEKNEIKRFNVPVVDFGGISAGQAHMADRNNELKGKEQHYQFSKNEAYDCTVVSLDAAITDITPISFVKMDIEGAEYFALKGMQQLLLKHKPVILIEINPFFLTGFDIKENDLKNLIASHAYKTYIYSAELKKLQAFECAYFESNYILIPEEKIAQFNAIIE”, the protein production result was “failed”.

Take “MASYHVSHDSYQSPGPSPLYQPIIEAPPPPYPPTRTRYQDYYGGYGQPHPPPLRPYRSDHEYYGDGEYVGCFPFLRSCLTTLCCCWFVEQCCFRSRY”: the protein production entry is recorded as “not failed”.

As for “MATAALSAARPNRLSSASSDVPLHPLYLPTKLQFPSRKTQLWRSAAILLPTRRRCAPPRASSRADDSPPFDMSVETALKVLGVSEGASFDEILRAKKSILASRKDDPNAISQAEAAYDMLLMQSLNQRRAGKVVSNNIRYADVKSSNPLGTSTVTQWMKNPPVSVDMPSTSDLGIQAGVYGAMMVLTYVNGSSFESSGMPYAGADVPGLILASSFGASLYFMTKKKVKLGKAAALTAGGLVAGAVVGSAIETWLHVDVVPFLGLHSPAAVVSEFIVFSQFLVSLCLR”, the protein production result is listed as “failed”.

In the case of “MATAEAQIGVNRNLQKQDLSNLDVSKLTPLSPEVISRQATINIGTIGHVAHGKSTVVKAISGVQTVRFKNELERNITIKLERLSEKKIKNLLTSKQQRQQYEIKQRSMLRHLAELRRHSRFRRLCTKPASSSMPASTSSVDRRTTRRSTSQTSLSPSNSSGYGSVFGCEEHDVDKIPSLNGFAKLKRRRSSCVGAPTPNSKRSKNNMGVIAKRPPKGEYVVERIECVEMDQYQPVFFVKWLGYHDSENTWESLANVADCAEMEKFVERHQQLYEIYIAKITTELEKQLEALPLMENITVAEVDAYEPLNLQIDLILLAQYRAAGSRSQREPQKIGERALKSMQIKRAQFVRRKQLADLALFEKRMNHVEKPSPPIRVENNIDLDTIDSNFMYIHDNIIGKDVPKPEAGIVGCKCTEDTEECTASTKCCARFAGELFAYERSTRRLRLRPGSAIYECNSRCSCDSSCSNRLVQHGRQVPLVLFKTANGSGWGVRAATALRKGEFVCEYIGEIITSDEANERGKAYDDNGRTYLFDLDYNTAQDSEYTIDAANYGNISHFINHSCDPNLAVFPCWIEHLNVALPHLVFFTLRPIKAGEELSFDYIRADNEDVPYENLSTAVRVECRCGADNCRKVLF”, the protein production result is reported as “failed”.

Regarding “MATAVKLSGISKTFGSLKANDNVSLSIEAGSIHALVGENGAGKSTLSNIIYGLLHPDSGTIEIDGKAVKFSSVRQAIEAGIGMVHQHFMLVPTLSVTENIILGKEESRLALPTRRIGKEIRQLSQQHGLEVDPDALVSTLSVGEQQRVEILKLLYRRAKLLILDEPTAVLSPPETARLFATLRSLAAEGRTVLLITHKLDEVLTVSDSVSVMRKGSLVGTVPTTSTSKEDLARMMVGRDVLLRTANAPQTPGKTVLSIDKLTYRSPLGIDKLTGLTLHVRAGEIYGIAGVEGNGQSELLSLLWGTFDRSGKTGGSITIDAQETLGKNPSEIAALGVSMIPEDRHKSAIIAEYGIEENLILGRHREKAFHRGIGFDRDAVHKNATAMIEQYDIRCAAGTNPPIASLSGGNQQKIVVAREMERPQLKLLVLAQPTRGVDIGAIEQIHKRIIDARKSGLAILLISSELEEIVALSTRIGCLYKGAIRHEFSETEVWRGRDHESGFEKEIGMHITLEHHHHHH”, the protein production entry is “not failed”.

Consider “MATESSSPSSVRKVVVHLRATGGAPILKQSKFKIPGTDKFAKVIDFLRRQLHSDSLFVYVNSAFSPNPDESVIDLYNNFGFDGKLVVNYACSMAWG”, for which the protein production entry is “failed”.

For “MATHNIHMDCAVNPSVRWRSRPVSTQVPRTRRFAAVVGPIAFSTLGIVLSLFAAVAVDAQPRTPGRVAAVFPPWWDDARVVASAGTAGDIAGAGGASFIVILRGDPATLNQRARTAGAWLLLDPALAGACARPASEPVSS”, the protein production entry was “failed”.

Turning to “MATIAAADRTVTSVRPAELGVKVVIVMALLLIVMLIFAYKVVSLHNMKDEPFWAAYGLIITAFIFTRFGLAALYRPPRRDTGNYWPVVAIIVPAYNEPDIARTLLHCVGVDYPRELLRVVVVDDKSSDDTLRRITDFAAEHPNLTVIPHEVNGGKRRAMATGMAAADDADLFVFIDSDSQVTRDAIRVIASYFADSSVGAVCGHTDVTNISHNILTRMQAMQYYIAFRIYKSAEALFGSVTCCSGCFSAYRADAVRPVADKWLNQTFLGRPSTFGDDRSLTNYLLRDWRVLYAPDAQAYTNVPEHLKQFLRQQLRWKKSWLREAPRAMCAVRRKNPVMVVMFALSIVLPLIAPQVVMRAFVVQPHFISQLPFWYFGGVAAIAVIYGLFYRLHRPVKRWYQGIFFTMFYTIILVLQMPYAMVTIRDSKWGTR”, the protein production entry is “failed”.

With “MATIEKRGSSYRARVTIYQHGKRDYLTKTFKTENEAKVWGTTLELEKAKGKAIAHQNTLFKDFYYLYVHTIKVNDVRKATFNNYLKAGLVINNLFPTAKLGKLDDVQMQKILDKYGETHSKKTVVELLKKIRTALRYAYAKGYIYNDFASLLKAHGKELPKRNKALSMSDLTKLKHYLLEHTDDEFNLMVLLEISTGLRRGEILGIKPEDVHYDGQYYCVEVRRSISPTTDDTKLKTKHSRRSVTIPKDVYDLLKTIPSKASGYLFDWFSFKQSELLKKLLKKIGIPSTTFHGLRDTHASFLFSNNIPLSYVSRRLGHDSILTTEKYYLELMPEKKHSQDANALNLLASL”, the protein production result was “failed”.

As for “MATIRKLRGRWQAQVRRRGVPPRAKSFDTKTAAERWARDLEAEADRSGWVADTRAAEKTTLGELLSRYANEVTPAKRGAVSEKARINSIVRCPISHRTLAKLTSSDVAGYRDERLKTVAPATVVRELNTISHAIEVATREWGLWVPRNPVKLVRRPPVPRGRTRRLKEGEEQRLLDACDRGRTPLLKPLIILAIETGMRRGELLDLRWEHIDLKRGVAHLPLTKNGDSRDVPLSCRAVQTLQELRSAGVRHDRVFSMTGNSVRLAFEHLRVRAGMSDLHFHDLRHEAISRLFEKGLNIAEVSAISGHRELKMLQRYTHLRAVDLVARLG”, the protein production result is “failed”.
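Also: failed if final PepcDB status was selected cloned or expressed and not failed if soluble or beyond.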
